± gives the standard error. This sample holds only a part of the variants without activity.
B1: glmS ribozyme (parent)
chain: AUAAAAGCGCCAGAACUACAGAAAUGUAGUUGACGAGGAGGAGGUUUAUCGAAUUUUCGGCGGAUGCCUCCAAA

Experiments:
Conditions in all cases: with glucosamine-6-phosphate
glucosamine-6-phosphate [1] = variants of: B1; test: self-cleavage kobs at 40 uM GlcN6P; higher = faster cleavage; RNA array
In short: (§1)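 Tracking of barcoded ribozyme variants used a hybridised Cy3 probe at 37 °C, after in situ transcription by E. coli RNA polymerase on sequenced MiSeq chips. The flowed solution held 40 μM to 10 mM glucosamine-6-phosphate in HEPES/KCl/Mg(OAc)2 buffer, and imaging ran over ~14 h. kobs was taken from exponential decay fits of normalised per-tile medians, and kcat and KM from weighted Michaelis–Menten fits.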

glucosamine-6-phosphate [2] = variants of: B1; test: self-cleavage kobs at 10000 uM GlcN6P; higher = faster cleavage; RNA array
In short: as §1

glucosamine-6-phosphate [3] = variants of: B1; test: self-cleavage kobs at 160 uM GlcN6P; higher = faster cleavage; RNA array
In short: as §1

glucosamine-6-phosphate [4] = variants of: B1; test: self-cleavage kobs at 640 uM GlcN6P; higher = faster cleavage; RNA array
In short: as §1

glucosamine-6-phosphate [5] = variants of: B1; test: self-cleavage kobs at 2500 uM GlcN6P; higher = faster cleavage; RNA array
In short: as §1

Variant	self-cleavage kobs at 40 uM GlcN6P (glucosamine-6-phosphate [1]) [s⁻¹]	self-cleavage kobs at 10000 uM GlcN6P (glucosamine-6-phosphate [2]) [s⁻¹]	self-cleavage kobs at 160 uM GlcN6P (glucosamine-6-phosphate [3]) [s⁻¹]	self-cleavage kobs at 640 uM GlcN6P (glucosamine-6-phosphate [4]) [s⁻¹]	self-cleavage kobs at 2500 uM GlcN6P (glucosamine-6-phosphate [5]) [s⁻¹]
AUAAAAGCGCCUGAACUACAGAAAUGUAGGUGACGAGGAGGAGGUUGUCCGAAUUUUCGGCGGAUGCCCGCAAA	< 1e-05	< 1e-05	–	–	–
AUAAAAGCGCCAGAGCUACAGAAAUGUAGUUGACAAGGAGGAGGUUUAUCGAAUUUUCGGCGGAUGCCUCCAAA	< 1e-05	< 1e-05	< 1e-05	–	–
AUAAAAGCGCCAGAACUACAGAAAUGUAGUUGACGUGGAGGACGUUUAUCGAAUUUUCGGCGGAUGCCUCCAAA	< 1e-05	–	< 1e-05	< 1e-05	< 1e-05
AUAAAAGCGGCAGAACUACAGAAAUGUAGUUGACCAGGAAGAGGUUUAUCGAAUUUGCGGCGGAUGCCUCCAAA	< 1e-05	–	–	–	< 1e-05
AUAAAAGCGCCAGAACUACAGAAAUGUAGUUGACGAGGAGGAAGUUUAUCGAAUUUUGGGCGGAUGCCUCCAAA	< 1e-05	< 1e-05	< 1e-05	< 1e-05	< 1e-05
AUAAAAGGGCCAGAACUACAGAAAUGUAUUUGACGAGGAGGAGGUUUAUCGAAUUUUCGGCGGAUUCCUCCAAA	< 1e-05	–	–	–	–
AUAAAAGCGCCAGAACUACAGAAAUGUAGUUGACGCGGAGGAGGAUUAUCGAAUUUUCGGCGGAUGCCUCCAAA	< 1e-05	< 1e-05	< 1e-05	–	–
AUAAAAGUGCCAGAACUACAGAAAUGUAGUUGACGACGAGGAGGUUUAUCGAAUUUUCGGCGGAUGCCUCCAAA	< 1e-05	< 1e-05	< 1e-05	< 1e-05	< 1e-05
AUAAAAGCGCCAGAACUACAGAAAUGUAGUUGACGAGGAGGAGGUCUAUCGACUAGUCGGCCGAUGCCUCCAAA	< 1e-05	–	–	–	–
AUAAAAGCGCCAGAACUACAGAAAUGUAGUUGACGAGAAGAAGGUUUAUCGAAUUUUCGGCGGAUGCCUCCAAA	< 1e-05	< 1e-05	< 1e-05	< 1e-05	< 1e-05
AUAAAAGCGCCAGAACUACAGAAAUGUAGUUGACGAGGAGGAGGUUUCUCGAAUUUUCGGCGGAGGCCUCCAAA	< 1e-05	–	< 1e-05	–	–
AUAAAGGAGCCAGAACUACAGAAAUGUAGUUCACGAGGAGGAGGUUUAUCGAAUUUUCGGCGGAUGCCUCCAAA	< 1e-05	–	–	–	< 1e-05
AUAAAAGCGCCAGAACUACAGAAAUGUAGUUGACGCGGAAGAGGUUUAUCGAAUUGUCGGCGGAUGCCUCCAAA	< 1e-05	–	–	–	–
AUAAAAUCGCAAGAACUACAGAAAUGUAGUUGACGAGGAGGAGGUUUAUCGAAUUUUCGGGGGAUGCCUCCAAA	< 1e-05	–	–	–	–
AUAAAAGCGCCAGAACUACAGAAAUGUAGUUGACGGGGAGGAGGUUUAUCGAAUUUUUGGCGGAUGCCUCCAAA	< 1e-05	< 1e-05	–	< 1e-05	< 1e-05
AUAAAAGCGCCAGAACUACAGAAAUGUGGUUGACGAGGAGGACGAUUAUCGAAUUUUCGGCGGAUGGCUCCAAA	< 1e-05	–	–	–	–
AUAAAAGCUCCAGAACUACAGAAAUGUAGUUGACGAGGAGGAGGUUUAUCGAAUUUUCGUCGGAUGCCUCCAAA	< 1e-05	–	–	< 1e-05	< 1e-05
AUAAAAGCGCCAGAACUACAGAAAUGUAGUUGACGAGGAGGAGGUUUGUCCAAUUUUCGGCGGAUGCCUCCAAA	< 1e-05	< 1e-05	< 1e-05	–	< 1e-05
AUAAAAGUGCCAUAACUACAGAAAUGUAGUUGACGAGGCGGAGGUUUAUCGAAUUUUCGGCGGAUGCCUCCAAA	< 1e-05	–	–	–	–
AUAAAACCGCCAGAACUACAGAAAUGUAGUUAACGAGGAGGAGGUUUAUCGAAUUUUCGGCGGAUGCCUCCAAA	< 1e-05	< 1e-05	< 1e-05	–	–
AUAAAAGCGCCAGAGCUACAGAAAUGUAGUUGUCGAGGAGGAGGUUUAUCGAAUUUUCGGCGGAUGCCUCUAAA	< 1e-05	5.87e-05 ± 1.3e-05	–	–	–
AUAAAAGCGCCAGAACUACAGAAAUGUAGUUGACGGGGAGGAGGUUUAUCAAAUUUUCGGCGGAUGCCUCCAAA	< 1e-05	–	< 1e-05	< 1e-05	–
AUAAAAGCGCGAGAACUACAGAAAUGUAGUUGACGAGGAGGAGUUUUAUCGAAUUUUCGGCGGAUGCCUCCAAA	< 1e-05	< 1e-05	–	< 1e-05	–
AUAAAAGCGCCAGAUCUACAGAAAUGUAUUUGACGAGGAGGAGGUUUAUCGAAUUUUCGGCGGAUGCCUCGAAA	6.19e-05 ± 2.4e-05	0.000144 ± 2.7e-05	–	–	–
AUAAAGGCGCCAGAACUACAGAAAUGUAGUUGACGAGGAGGAGGUAUAUCGAAUUUUCGGCGGAUGCCUCCAAA	< 1e-05	–	< 1e-05	–	–
AUAAAAGCGCAAGAACUACAGAAAUGUAGUUGAAGAGGAGGAGGUUGAUCGAAUUUUCGGCGGAUGCCUCCAAA	< 1e-05	–	–	–	< 1e-05
AUAAAAGCCCGAGAACUACAGAAAUGUAGUUGACGAAAAGGAGGUUUAUCGAACUUUCGGCGGGUGCCUCCAAA	< 1e-05	–	–	–	–
AUAAAAGCGCCAGAACUACAGAAAUGUAGUUGACGAGGAGGAGGUUUAUCGAAUUUUCAGCGGCUGCCUCCAAA	< 1e-05	–	< 1e-05	< 1e-05	< 1e-05
AUAAAAGCGCAAGAACUACAGAAAUGUAGUUGACGAGGACGAGGUUUAUCGAAAUUUCGGCGGAUGCCUCCAAA	< 1e-05	–	–	–	–
AUAAAAGCGCCCGAACUACAGAAAUGUAGUUGACGAGAAGGAGGUUUAUCGAAUUUUCGGCGGAUGCCUCCAAA	< 1e-05	–	< 1e-05	–	–

— the supplement of paper PMC7125110
